Assay results: PMC8225741, “Tumor-derived neomorphic mutations in ASXL1 impairs the BAP1-ASXL1-FOXK1/K2 transcription network” (Protein & Cell, 2020)

Target: T1, SBP-tagged ASXL1^450–1,300 (human, UniProt Q8IXJ9 450-1300)
T1 construct: ASXL1, human, residues 450–1,300; cDNAs encoding SBP and ASXL1 450-1,300 cloned into pRK7-N-Flag; also called ASXL1 (residues 450–1,300); ASXL^450–1,300; source: HEK293T, overexpressed, immobilized to Streptavidin beads
T1 sequence (looked up): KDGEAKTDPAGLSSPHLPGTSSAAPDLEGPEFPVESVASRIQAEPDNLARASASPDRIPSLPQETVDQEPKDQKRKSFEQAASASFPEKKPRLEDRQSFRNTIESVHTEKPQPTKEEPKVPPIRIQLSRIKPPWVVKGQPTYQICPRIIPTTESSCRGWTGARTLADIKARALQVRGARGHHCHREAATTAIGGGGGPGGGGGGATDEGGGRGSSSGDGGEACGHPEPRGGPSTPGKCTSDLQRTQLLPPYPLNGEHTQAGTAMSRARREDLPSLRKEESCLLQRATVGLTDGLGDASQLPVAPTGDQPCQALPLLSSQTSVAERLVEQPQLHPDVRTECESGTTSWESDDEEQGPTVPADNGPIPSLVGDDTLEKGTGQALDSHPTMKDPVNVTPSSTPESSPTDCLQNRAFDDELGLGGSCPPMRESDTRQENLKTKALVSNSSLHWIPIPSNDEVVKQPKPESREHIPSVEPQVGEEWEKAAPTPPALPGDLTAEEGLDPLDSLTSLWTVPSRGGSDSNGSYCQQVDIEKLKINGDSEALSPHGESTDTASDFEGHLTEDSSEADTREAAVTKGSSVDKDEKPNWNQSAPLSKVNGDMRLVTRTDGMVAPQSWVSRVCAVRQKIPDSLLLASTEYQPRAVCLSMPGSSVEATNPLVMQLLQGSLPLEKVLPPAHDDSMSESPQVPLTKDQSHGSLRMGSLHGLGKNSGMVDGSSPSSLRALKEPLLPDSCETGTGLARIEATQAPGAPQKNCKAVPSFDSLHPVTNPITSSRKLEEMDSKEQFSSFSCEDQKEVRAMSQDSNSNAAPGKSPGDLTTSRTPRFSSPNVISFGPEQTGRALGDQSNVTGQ
Experiment: pull-down; SBP-tagged ASXL1^450–1,300 immobilized to Streptavidin beads, incubated with Flag-peptide-eluted FOXK1 at 4 °C for 3 h, washed 3 times, SDS-PAGE and Coomassie blue staining
Details: both partners purified

- binding result: binds
B1: Flag-tagged full-length FOXK1 protein (natural protein, human, UniProt P85037 1-733, looked up)
chain: MAEVGEDSGARALLALRSAPCSPVLCAAAAAAAFPAAAPPPAPAQPQPPPGPPPPPPPPLPPGAIAGAGSSGGSSGVSGDSAVAGAAPALVAAAAASVRQSPGPALARLEGREFEFLMRQPSVTIGRNSSQGSVDLSMGLSSFISRRHLQLSFQEPHFYLRCLGKNGVFVDGAFQRRGAPALQLPKQCTFRFPSTAIKIQFTSLYHKEEAPASPLRPLYPQISPLKIHIPEPDLRSMVSPVPSPTGTISVPNSCPASPRGAGSSSYRFVQNVTSDLQLAAEFAAKAASEQQADTSGGDSPKDESKPPFSYAQLIVQAISSAQDRQLTLSGIYAHITKHYPYYRTADKGWQNSIRHNLSLNRYFIKVPRSQEEPGKGSFWRIDPASEAKLVEQAFRKRRQRGVSCFRTPFGPLSSRSAPASPTHPGLMSPRSGGLQTPECLSREGSPIPHDPEFGSKLASVPEYRYSQSAPGSPVSAQPVIMAVPPRPSSLVAKPVAYMPASIVTSQQPAGHAIHVVQQAPTVTMVRVVTTSANSANGYILTSQGAAGGSHDAAGAAVLDLGSEARGLEEKPTIAFATIPAAGGVIQTVASQMAPGVPGHTVTILQPATPVTLGQHHLPVRAVTQNGKHAVPTNSLAGNAYALTSPLQLLATQASSSAPVVVTRVCEVGPKEPAAAVAATATTTPATATTASASASSTGEPEVKRSRVEEPSGAVTTPAGVIAAAGPQGPGTGE
notes: FOXK1, human, full-length cDNA; Vector pRK7-N-Flag; source: HEK293T, overexpressed, purified by immunoprecipitation and eluted by Flag peptide; not shown: Flag, N-terminal, kept
